The values below come from the NTF2 design screens of Basanta et al. (2020).

A short description of the series: protease stability score; higher = more stable; yeast display proteolysis, trypsin and chymotrypsin.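 Note: relative to predicted unfolded state with 0 unfolded-like and 1 meaning tenfold more protease.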
“SEKEEHLHELTRLLVEWFITGDEEDNLEQADPHVRMILIVDGRIIERHGREKLYEEAHRHLKRLGIDHYRIKHVDIQGEKVKINGQLEFNGVIYDARLTFVVINGKLHQEYRSEE”: the protease stability score came out at 1.64.

As for “SEKEEISRRLLELWLKADATGDEKLLLKLMDPDVRIDVDGVENHGMELVTEFLREERDRIDHKIIEIKEMRVVGDKVHMDIRINIEVNGKENETRVELRLEIIDGKIRSVKIIKR”, the protease stability score was determined as 0.733.

In the case of “SEKEELDQKFIEDYIRHLLTGDFESLTKMADPNVRLSIDGQNHHGRENFERFAFEWIEKYKNVRIHVRDVHVVDGQAHIIMTLDINGKTREVHIEVFIVNGRIKSNELRYR”, the protease stability score worked out at 1.36.

Take “SEKEEQAFRLFKDIVRSMKTGDEDRLHELFDPNVRMDFNGVESHGRELALEVIRIVWREIRIKNIEVHHIEVIGNYVRIDSRLDGRYDGRRIILEMHVQLVKVDGQWIVHNIEIK”: the protease stability score came to 2.12.

Take “SEKEEQARKLAKDWSHDTDTGDFKSIFDLIDPDVRVEIGDKRFVGWELVVKWHEHHRHEFGVTQIRHRVDDMELQGEKVIVRGTLIYDGVDFKVHLILEVINGRIRRVEIRIE”: the protease stability score was 1.04.

Sequence “SEKEERALELIKRFWESELTGNEDWLRHLADPDYLYILLIDGKEHNFHGMETWYEKINRIKGVQIDHLEIRHENVIGDKVEIDGRMDITVNGKRIDKRVELQYSVVDGRFKSVKITNI” registered a protease stability score of 0.809.

The sequence “SEKEEVLREHARRVTEWWLTGDWEEFMKNMDPNARLQIGDKTSHGREEMYRVLKEIEHRLGVDHIEIKDEKVFNGRNHLDTRLHIGDKSINIRIHIDFVNGRLKFVRIEVD” came in with a protease stability score of 1.18.

With “SEKEHIMRRASQLIRDYLITGDWRSLEKLIDPNAQFEVNGRHIHGREEVSRIYLQHLNELGVERIDYIERDSDMQGEKVHTYGDLHVNGVTFHVIIFVLKIDGRWTIKKEIWSDK”, the protease stability score amounted to 1.15.

On to “SEKEKDSRIAIELSLKLVLTGNPEMNRELVDPHARVEVGEKEYHGRDWVRYQLELLGIDHFEIHHVDMYGEYVDVTLELRVGDKSFRLILHLEKIDGRWIVRKVHVD”, for which the protease stability score amounted to 2.14.

In turn, “SEKEKILEHFSELWYRLFRTGDEDTLHRMFDPDYRLIYGDKESHGRRLVWIMIAELRIHDWRLRRYHVQGDKAHFDVEVTGEFNGRREHNREEIIITVIDGRATEVEIRID” showed a protease stability score of 0.54.

For the sequence “SEKEKLMHDIIEKYMRNLETGNEEEYAKLADPNTRLHYGNKHRVGWKEIVHTLRHWRIHIRDSEIDSIHNIDGQAFVKGKRKGEINVDGVNIDTTFDVDIIINVFDGRLKEIEIRIH”, the protease stability score was 0.068.

The sequence “SEKEKLSKDLTRLLLEIIMTGDWKALSDNMDPEARQDIGDKHIVGREIISQFKMELDEEAGFKHSEIQRIRIIGDKIEMDVHVDQGDKHHTVHIIVIIVNGRIKHVEVRIR” gave a protease stability score of 2.

Regarding “SEKEKLYKDMFRLWAENHRTGNEKKLLEMADPNAQFIFNGREFHGRELIKEEIDEWINRIKNVRVDIHRVEIQGEKIHVITRLHINGQDLETKVELIIVDGQLHLERIHID”, the protease stability score came to 0.759.

On to “SEKERLVLEIYWKIIHSRNTGDEDHWEELADPDMKLTINGVEFHGREATSKFFKEHVKRFGWEFHIHVDRINAFDGRVESHVIIHIQVGDKHIEIEMREEYVVINGVLKEIRILDR”, for which the protease stability score worked out at 2.1.

On to “SEKERMIREMLEETMRSLKTGDEDSIHRLFDPHTRSEIDGKEYHGREEVSKWVRHARIHDFQLEDVRIQGNKAILIGVMHGRVDGRKFTTEVRIFSVKVDGQWVNENLELH”, for which the protease stability score is 0.993.

Sequence “SEKETLDQHIARLWVHYWLTGDEDQLHRLADPNVRSIVDGKHVHGMERMLTELKRMRERFDHMHIEIHDIKVFDGVIHIDTTLHVQINGVHRSWESRIIIYLINGRVHSVEIRIL” came in with a protease stability score of 1.16.

“SEKHEDAHRFYEQYLEALRTGDEDLLTELIDPHVKVEIGDKHYHGRDWMIEILRKRKERFPGLKIIIILRRMHIIGDKVFMDVEVRVHQGEKTETHRFEMIVNKINGRWLVDSIHIE” had a protease stability score of 2.08.

“SEKHEEVKRALELEVQLLRTGDEDIYANLADPNTRLLFDGVDIIGMEKVMEWLRFIHEHIRIRDLKIRRVRLIDGQVDVDSQIEGHVGDKHINIKHEIVVEKINGRWYIRSRHWH”: the protease stability score came to 1.52.

Sequence “SEKHEHAHRIMEIILRAWETGDEESLRELLDPNVRFIQGDKDVVGREEMSRVLHEFREHIRLKSIHIHDKHAINGVFHLDIRIWGNVNGRDDHIEVNYTVVIVDGKIRDLEVRIH” showed a protease stability score of 1.06.

Turning to “SEKQKLAEHFAKEFIHSLETGNEEFLEHLADPDTRLEVGDKEIHGMHHLSRWLHEHLHRYKNVRWSIEITSIEVQGDKIIIHGTLHLNIDGVEIRELIVIEIDVVNGRVKSEHRDKL”, the protease stability score stood at 1.38.

Regarding “SEKRQEERKMLELIEHYWQTGDFELLRELADPDTKVRIGDKERHGWEAYIEILRTLGADHMSIRDQKTVGDYVILHIDIRIGDKRYETTLVSEKFDGRWILRRSEFR”, the protease stability score is 1.16.

“SEKTHEFQKLYHEWIRVEWTGDFHMLSHMADPNTRVELIINGRTVERIGREDMIELVRRLKHEIRFHDFDIKRVRIQGEKIYADTHEDGEINGQRRETDAKLELDVYNGKIESVFWYIE” came in with a protease stability score of 1.13.

The sequence “SELDDHMRRIMDHYIEDLVTGNEDRQQKLADPNVRVIIWQGDKIYHLHGREEWVKALRELRWHEIHVRHREPVNGKTHVDTEVDGEINGRRHRHRVHLTLLVVDGKVKLVEFDHH” yielded a protease stability score of 1.37.

For the sequence “SELDEDFRHMVELFAFHMLTGDEHEVHRLADPHYRYEQGDKNIIGRDEWIRFLREIRIHVNSIHIRRLDYVGDKIEADVHFDVLIHVNGVRIRHRHDSHLFWEKVDGRWVLHSVRVL”, the protease stability score is 1.36.

“SELDEDSEEAVREDIETIKTGNEEMFKRLVDPNARTDFNGKELVGREAVLHFWTMILKTMGVDHVHIEEVRIFNGRLIMHHTIHVGDKFIEVILFSEKFNGKWQIKEIEIR” came in with a protease stability score of 0.053.

In turn, “SELDEEAEEALRITFEMLITGDWEFLNHYVDPDAKLNIGDKEHHGRETVITFVKEISRKLGIKVIRFRHIEVQVFNGKVDIHIHGVVEWNGRREEFRIIIILHKIDGQWHIREMRVHIR” registered a protease stability score of 2.4.

The sequence “SELDELANFANELFWELHKTGDEEIFNHYADPHMRYEIDGRDIHGMEVFTKHLRRIKNLTLHSIHVHDEKSQGEKFIFDGNVVGRVNGKEFDTRVRLELTVINGRVHSIILRRH” returned a protease stability score of 1.41.

“SELDENVKRITDIFIHAILTGDEHKIRKLLDPHVRTVVDGVEYIGREWFAEWVKHMRIDDHRIKTIEIRNQGDYAHVHIHGRTLGEYDGKHSTVNMFIHMHFVKFDGKWFVHELNVHII” came in with a protease stability score of 2.06.

In turn, “SELDEYMHRMMKWILEEEITGDEERFLHLADPHVRSRIDVGEWKWDHHGRDAIRVYREQVDHITHVKVSNFHVQGDKAISDVHEEVRVGDKHVIRRIEIIVIVIDGKVHSIELEIK” yielded a protease stability score of 0.357.

In turn, “SELDHAAEHLYRLFYHLERTGDEETLMDNMDPNARNEQGEFEYHGREFIEWVSEHLGINVIRVKRVDLRVINGRMILDIDYRVHIGDKTIQRHIHVVINKVNGKWIVEKLRIEWR” registered a protease stability score of 0.79.

In the case of “SELDHLTKHAMELWLRLLETGDEHSEHRLADPNVRLDVNGKELHGMEEILEHLSRLGIKVFRVKDTELVGNKLHLIGELEFDGKRVETHVIAWKINGRWHLHRREIR”, the protease stability score was 1.57.

In turn, “SELDKVAEEHMEHFFHLYRTGDEDMTHELLDPHVRVSINGVETVGRELATKEVIDWVRKVKNVKTHIHHIEKINGKVIVDTRIHINGVDFRLVIWADKVNGRWHIREMEIR” showed a protease stability score of 1.36.

Sequence “SELDRDVEHVLKELAKAMRTGDEEMLHDMIDPNARMIVDGKNLHGREQIWKFFTELRVDSRRYEVKHSEIQGNKLEIDGRTRIIIIVNGREIDRETHTEIILLKINGKWLMHSVRIE” came in with a protease stability score of 1.07.

The sequence “SELDTLVEEVAEIIVKYLITGDEDSLLKMLDPNMRTDINGREIHGREVTHEFLRQEKERLGVSRIQMRLESFRVQGDKIIIHGTLHYNGKDFEVIVIIIVWNGRIREIRIEIR” came in with a protease stability score of 1.4.

“SELEDATEFAIKVLLEVLRTGDWLEFEKMVDPNVRSSINGVELHGRRRLSHEILREWMELGIKHLDVHLKHKELQGDKLILIVELRLDVNGREIRRETELILLKVDGRWLLTEVRVK” had a protease stability score of 1.58.

“SELEDMLRHMFDLFWRAFRTGDWELLMRLADPHVRLEVRFNGRHIEHVGRESFVESVETLRHEWRIDHLRINDEKYQGDYVNLNTRMDVFFDGVKVRTDTRVHSVVVNGRLREFSIEFG” yielded a protease stability score of 0.495.

On to “SELEEAVRRWLELFFKLFWTGNEEILTDLFDPNVRLEVGDKVFIGREEVSRHLREFRERVKNLRMHVHDVKLINGVVHMDIEIDINGVRTKAHTDWIVIDGRHHSQIIKIN”, for which the protease stability score stood at 0.525.

As to “SELEEDMRYLLKLILDAFRTGDEHTFARLFDPHVRIEIGDKEFVGREFVLHHAHQLRIKRSHFNVEHFEWQGNKIRMHGILHFHGRFDGQERESYVDIHIVIEKVDGRWLVKSLHIH”, the protease stability score is 1.63.

In turn, “SELEEEAKELIEEWLHSFSTGDEKKLYELADPDDRLLFNGVEFVGREEMLKNFRDLYRKWGVTRVEADVKRIHVFNGVAHSDTVSHYNGVRVKTHLVIEKINGRWRVSSLHIH” displayed a protease stability score of 1.42.

In turn, “SELEEEALHLMELYLKSVMTGDEESIRRLADPNVRFEVDINGKKLELHGWKEETKFWREIWVRELRVRDKDAIGNKVHSVVEINVDVNGKEIRRESEEHYIIVDGRLHIISFRVN” showed a protease stability score of 1.27.

In turn, “SELEEEARKMNERFWRDMITGDFDSLVRLADPHVKVLYGDKFSIGREVFEEHLRHLGIKVSHLRNLDVQGDKVIVHGESKFNGKTFELEIIMRKFDGRWFIETVNLQ” displayed a protease stability score of 0.973.

Regarding “SELEEEMEKWARDFLRLWFTGDEETTERLFDPHARMDVNGVQNHGWEMMSRQLTHYINHIRIRDLEVETISQQGDKIYVHGQENVEIGDKHLRYHTHIELVIVNGRVQEVRIEVK”, the protease stability score is 0.993.

Consider “SELEEENRQALKESLREWETGDEKRLHENADPNARLQYGDKHYHGRENVSHMLTHIIEKFGIDHMRVRDFRVQGEKVETHVELRVGDKHLHIRIITMKVNGKWLFHSVHMHIE”, for which the protease stability score is 0.997.

Sequence “SELEEESHKFFREFYRVIETGDEDRLEELADPHVRNDFNGVLIHGREEMRKMREKVHKQLGVTRVEVTVRDMKIQGDKAISHGVFHIGEKDFIVTLISEKINGRWILHSIEVR” registered a protease stability score of 1.2.

On to “SELEEEVRRAVTFWLEALMTGDEESVSHMLDPNVRVDIDGRDLHGREKMIETMKHIRIKHIELTSIKVINGRAHIHTKVDGEFNGRRDTLDVEIIITKINGKWVVKEVNVK”, for which the protease stability score stood at 1.7.

In the case of “SELEEFARKLMHIYSFAFLTGDWRLHEHMLDPHVRQEQGDKELHGMEDLERLMKRIDHVKHVEMLIEHLEVQGDKVRAHGKWRLIGTVNGQDVDVTIRAHFNIEKFDGVWVVREVRLL”, the protease stability score came to 2.58.

Take “SELEEHATKMLQMVLEWWFTGDEEIFKHLADPHVRVESLINGVEIRRVGMEKLHEWLKHVLIHLRFEDMKVKHLEIINGVARQDTRTHMDVNGKHVDLETHVVVVNVNGRLKSIKIEIR”: the protease stability score turned out to be 0.971.
